{"source": "patent US20190225658A1", "key": {"Kir3.1/Kir3.4 channel [1]": {"biological_target": "Kir3.1/Kir3.4 channel", "sequence (P48549 whole entry, chain 1 of 2)": "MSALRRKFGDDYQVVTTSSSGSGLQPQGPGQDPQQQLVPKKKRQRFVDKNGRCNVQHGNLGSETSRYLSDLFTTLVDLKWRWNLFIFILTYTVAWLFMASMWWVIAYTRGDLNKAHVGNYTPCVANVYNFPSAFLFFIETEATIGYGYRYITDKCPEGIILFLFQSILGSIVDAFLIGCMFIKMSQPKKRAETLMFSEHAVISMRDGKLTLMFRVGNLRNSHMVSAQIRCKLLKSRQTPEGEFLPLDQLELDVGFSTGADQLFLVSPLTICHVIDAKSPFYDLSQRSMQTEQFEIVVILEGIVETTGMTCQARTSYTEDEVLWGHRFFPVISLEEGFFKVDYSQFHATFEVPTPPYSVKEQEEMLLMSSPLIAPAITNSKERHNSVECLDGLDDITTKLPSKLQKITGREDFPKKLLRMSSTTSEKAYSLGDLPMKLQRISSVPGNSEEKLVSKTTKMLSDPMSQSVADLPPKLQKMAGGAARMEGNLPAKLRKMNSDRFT", "sequence (P48544 whole entry, chain 2 of 2, further chain)": "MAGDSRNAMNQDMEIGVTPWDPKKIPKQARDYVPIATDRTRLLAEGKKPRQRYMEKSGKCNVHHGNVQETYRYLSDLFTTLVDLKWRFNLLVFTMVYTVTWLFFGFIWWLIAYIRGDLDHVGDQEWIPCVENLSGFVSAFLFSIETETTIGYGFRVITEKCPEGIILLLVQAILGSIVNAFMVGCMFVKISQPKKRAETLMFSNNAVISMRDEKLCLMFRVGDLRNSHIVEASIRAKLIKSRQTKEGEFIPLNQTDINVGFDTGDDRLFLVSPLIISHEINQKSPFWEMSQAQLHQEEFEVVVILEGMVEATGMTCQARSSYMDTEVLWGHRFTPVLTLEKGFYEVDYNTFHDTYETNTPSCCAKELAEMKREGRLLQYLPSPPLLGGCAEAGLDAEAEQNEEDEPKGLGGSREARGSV", "test": "cell-based or functional assay"}, "Kir3.1/Kir3.4 channel [2]": {"biological_target": "Kir3.1/Kir3.4 channel", "test": "flow cytometry dose response curve of binding on HEK cells stably transfected with Kir3.1/3.4"}, "Kir3.1/Kir3.4 channel [3]": {"biological_target": "Kir3.1/Kir3.4 channel", "test": "flow cytometry, HEK cells stably transfected with Kir3.1/3.4, labeled with 10 nM; unlabeled cells 162 A.U."}}, "data": [{"substance": "TertiapinQ (peptide)", "values": [{"measurement": "IKACh block, patch clamp, dose response curve", "setting": "Kir3.1/Kir3.4 channel [1]", "result": 70, "unit": "nM"}]}, {"substance": "TertiapinQ labeled with ATT0633 (peptide)", "values": [{"measurement": "IC50", "setting": "Kir3.1/Kir3.4 channel [2]", "result": 11, "unit": "nM"}, {"measurement": "median fluorescence", "setting": "Kir3.1/Kir3.4 channel [3]", "result": 3840, "unit": "A.U."}]}, {"substance": "TertiapinQ peptibody (Fc fusion)", "values": [{"measurement": "IKACh block, patch clamp, dose response curve", "setting": "Kir3.1/Kir3.4 channel [1]", "result": 16, "unit": "nM"}]}]}
